Reference: PMC11189300, “Structure of the human KMN complex and implications for regulation of its assembly” (Nature Structural & Molecular Biology, 2024)

Tests used:
Settings in all cases: both partners purified
[1] = biological target: T1, Mis12 complex (Mis12C), full length: MIS12, PMF1, NSL1, DSN1 (human, UniProt Q9H081 1-205; Q6P1K2 1-205; Q96IY1 1-281; Q9H410 1-356); experiment: ITC; PEAQ-ITC; 50 mM HEPES pH 8.0, 150 mM NaCl, 1 mM TCEP; 19 injections; one-site binding fit
T1 construct: MIS12, human, subunit of the Mis12 complex; PMF1, human, subunit of the Mis12 complex; NSL1, human, subunit of the Mis12 complex; DSN1, human, subunit of the Mis12 complex (DSN1^SORT-HIS); In BLI one partner was biotinylated by sortase (GGGG-biotin peptide); also called Mis12C^WT; wild-type Mis12C; source: Tnao38 insect cells (baculovirus from pBIG1A), purified (Talon, SEC); copies: + + +
T1 sequence (looked up) 1: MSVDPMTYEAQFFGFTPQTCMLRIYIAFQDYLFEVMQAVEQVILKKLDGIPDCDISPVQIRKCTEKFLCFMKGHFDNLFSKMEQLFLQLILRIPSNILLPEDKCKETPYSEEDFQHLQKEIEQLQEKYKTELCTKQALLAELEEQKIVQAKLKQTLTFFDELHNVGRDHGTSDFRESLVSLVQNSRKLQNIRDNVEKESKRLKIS
T1 sequence (looked up) 2: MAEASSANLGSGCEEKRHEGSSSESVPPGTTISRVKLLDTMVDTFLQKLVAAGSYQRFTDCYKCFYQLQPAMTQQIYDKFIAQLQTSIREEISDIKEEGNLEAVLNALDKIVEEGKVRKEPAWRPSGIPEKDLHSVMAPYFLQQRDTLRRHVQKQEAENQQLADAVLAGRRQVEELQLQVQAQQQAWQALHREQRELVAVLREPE
T1 sequence (looked up) 3: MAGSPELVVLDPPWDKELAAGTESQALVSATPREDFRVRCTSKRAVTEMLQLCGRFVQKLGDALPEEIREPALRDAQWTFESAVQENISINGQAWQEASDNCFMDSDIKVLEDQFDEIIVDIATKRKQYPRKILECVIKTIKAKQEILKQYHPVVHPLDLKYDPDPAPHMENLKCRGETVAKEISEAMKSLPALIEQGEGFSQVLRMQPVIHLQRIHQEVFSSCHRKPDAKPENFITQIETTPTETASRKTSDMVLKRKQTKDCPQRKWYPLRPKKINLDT
T1 sequence (looked up) 4: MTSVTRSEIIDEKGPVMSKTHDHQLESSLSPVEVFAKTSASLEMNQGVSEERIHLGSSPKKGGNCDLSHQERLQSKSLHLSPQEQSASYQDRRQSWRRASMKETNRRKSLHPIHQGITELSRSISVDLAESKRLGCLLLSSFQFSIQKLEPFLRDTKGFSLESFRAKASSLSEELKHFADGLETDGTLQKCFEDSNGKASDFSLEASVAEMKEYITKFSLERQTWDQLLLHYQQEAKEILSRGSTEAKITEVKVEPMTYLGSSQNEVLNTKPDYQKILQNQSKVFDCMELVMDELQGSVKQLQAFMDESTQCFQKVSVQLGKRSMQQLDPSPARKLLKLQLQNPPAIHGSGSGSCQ

[2] = biological target: T1, Mis12 complex (Mis12C), full length: …; experiment: BLI; Octet SA biosensors loaded with the biotinylated ligand, analyte at different concentrations; 25 °C; 50 mM HEPES pH 8.0, 150 mM NaCl, 2 mM TCEP, 0.05% Tween-20; which partner was loaded is not given
[3] = biological target: T2, DSN1 (subunit of Mis12C in the KMN structure) (human, UniProt Q9H410 1-356); experiment: cryo-EM structure; eight-subunit KMN (full-length Mis12C, SPC24 109–197/SPC25 92–224, ZWINT, KNL1 2,021–2,342), 0.3 mg/ml with 0.003% Triton; reconstruction at 4.5 Å; model fitted from known structures and AF2 predictions and refined against the map
T2 construct: DSN1, human; also called DSN1^SORT-HIS; source: Tnao38 insect cells (baculovirus), co-expressed in Mis12C, purified (Talon, SEC)
T2 sequence (looked up): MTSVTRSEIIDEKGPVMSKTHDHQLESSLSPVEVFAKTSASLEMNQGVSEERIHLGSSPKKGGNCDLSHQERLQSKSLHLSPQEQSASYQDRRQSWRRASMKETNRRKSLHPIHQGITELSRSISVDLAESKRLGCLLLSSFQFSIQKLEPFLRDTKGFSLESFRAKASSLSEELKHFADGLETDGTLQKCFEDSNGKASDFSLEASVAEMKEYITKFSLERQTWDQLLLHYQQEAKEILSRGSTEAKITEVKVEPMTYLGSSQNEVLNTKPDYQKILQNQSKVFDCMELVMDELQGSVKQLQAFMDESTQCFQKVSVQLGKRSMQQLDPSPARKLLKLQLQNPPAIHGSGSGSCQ

[4] = biological target: T3, NSL1 (subunit of Mis12C in the KMN structure) (human, UniProt Q96IY1 1-281); experiment: as above
T3 construct: NSL1, human; source: Tnao38 insect cells (baculovirus), co-expressed in Mis12C, purified (Talon, SEC)
T3 sequence (looked up): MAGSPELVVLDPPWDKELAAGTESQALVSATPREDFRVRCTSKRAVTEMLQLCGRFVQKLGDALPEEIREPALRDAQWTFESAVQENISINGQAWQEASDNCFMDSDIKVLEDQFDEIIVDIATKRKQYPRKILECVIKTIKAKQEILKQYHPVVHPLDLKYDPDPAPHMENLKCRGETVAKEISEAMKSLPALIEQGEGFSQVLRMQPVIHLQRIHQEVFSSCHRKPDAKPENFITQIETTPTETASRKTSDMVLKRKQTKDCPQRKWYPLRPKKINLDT

[5] = biological target: T4, SPC25_(92–224) (human, UniProt Q9HBM1 92-224); experiment: as above
T4 construct: SPC25, human, residues 92–224 (RWD domain); source: E. coli BL21(DE3)-codon-plus-RIPL, co-purified with SPC24 (glutathione-agarose, 3C protease, SEC)
T4 sequence (looked up): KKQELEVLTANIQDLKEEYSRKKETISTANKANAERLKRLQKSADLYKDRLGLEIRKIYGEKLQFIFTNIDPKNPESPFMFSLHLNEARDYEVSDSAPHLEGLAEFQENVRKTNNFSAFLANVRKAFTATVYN

[6] = biological target: T1, Mis12 complex (Mis12C), full length: …; experiment: as above
[7] = biological target: T5, KNL1 residues 2,021–2,342 (human, UniProt Q8NG31 2021-2342); experiment: SEC; KNL1 2,021–2,342, ZWINT, Mis12C and SPC24 109–197/SPC25 92–224 mixed equimolar on ice for at least 1 h; 50 mM HEPES pH 8.0, 150 mM NaCl, 2 mM TCEP; S200 5/150 column
T5 construct: KNL1 (CASC5), human, C-terminal region, residues 2,021–2,342; numbering of isoform 1 of the CASC5 gene; also called KNL1_(2,021–2,342); Knl1_(2,021–2,342); source: E. coli BL21(DE3)-Codon-plus-RIPL, purified (glutathione-agarose, TEV cleavage, SEC)
T5 sequence (looked up): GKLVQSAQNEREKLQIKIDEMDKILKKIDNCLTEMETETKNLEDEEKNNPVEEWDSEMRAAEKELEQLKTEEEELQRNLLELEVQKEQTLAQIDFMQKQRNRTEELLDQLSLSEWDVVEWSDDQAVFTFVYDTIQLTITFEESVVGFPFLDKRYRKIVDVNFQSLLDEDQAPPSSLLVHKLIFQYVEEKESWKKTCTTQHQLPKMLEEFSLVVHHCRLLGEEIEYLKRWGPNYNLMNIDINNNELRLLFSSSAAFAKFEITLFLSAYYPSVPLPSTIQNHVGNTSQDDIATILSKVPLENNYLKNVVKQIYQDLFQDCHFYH

[8] = biological target: T6, Mis12C^M5 (NSL1 I216A) (human, UniProt Q9H081 1-205; Q6P1K2 1-205; Q96IY1 1-281; Q9H410 1-356, I216A); experiment: ITC; PEAQ-ITC; 50 mM HEPES pH 8.0, 150 mM NaCl, 1 mM TCEP; 19 injections; one-site binding fit
T6 construct: MIS12, human; PMF1, human; NSL1, human, with I216A on the α5 helix; DSN1, human; source: Tnao38 insect cells (baculovirus), purified (Talon, SEC); copies: + + +
T6 sequence (looked up) 1: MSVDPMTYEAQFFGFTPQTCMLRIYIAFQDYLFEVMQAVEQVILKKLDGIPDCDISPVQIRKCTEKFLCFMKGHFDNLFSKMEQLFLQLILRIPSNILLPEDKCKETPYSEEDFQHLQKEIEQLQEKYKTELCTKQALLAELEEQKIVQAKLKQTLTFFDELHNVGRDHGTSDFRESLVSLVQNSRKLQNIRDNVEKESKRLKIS
T6 sequence (looked up) 2: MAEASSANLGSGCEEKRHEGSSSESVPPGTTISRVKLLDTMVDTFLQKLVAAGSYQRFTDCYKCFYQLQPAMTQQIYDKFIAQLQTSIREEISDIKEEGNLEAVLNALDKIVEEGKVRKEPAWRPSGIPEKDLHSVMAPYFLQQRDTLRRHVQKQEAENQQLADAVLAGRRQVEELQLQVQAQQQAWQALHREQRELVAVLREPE
T6 sequence (looked up) 3: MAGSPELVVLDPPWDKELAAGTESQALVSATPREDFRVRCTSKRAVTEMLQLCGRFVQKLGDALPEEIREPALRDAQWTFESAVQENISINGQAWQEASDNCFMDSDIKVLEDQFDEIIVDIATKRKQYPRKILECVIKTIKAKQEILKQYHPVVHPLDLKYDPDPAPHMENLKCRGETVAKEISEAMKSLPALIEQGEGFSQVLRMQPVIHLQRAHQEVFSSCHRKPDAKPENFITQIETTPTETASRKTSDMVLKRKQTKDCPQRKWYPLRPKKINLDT
T6 sequence (looked up) 4: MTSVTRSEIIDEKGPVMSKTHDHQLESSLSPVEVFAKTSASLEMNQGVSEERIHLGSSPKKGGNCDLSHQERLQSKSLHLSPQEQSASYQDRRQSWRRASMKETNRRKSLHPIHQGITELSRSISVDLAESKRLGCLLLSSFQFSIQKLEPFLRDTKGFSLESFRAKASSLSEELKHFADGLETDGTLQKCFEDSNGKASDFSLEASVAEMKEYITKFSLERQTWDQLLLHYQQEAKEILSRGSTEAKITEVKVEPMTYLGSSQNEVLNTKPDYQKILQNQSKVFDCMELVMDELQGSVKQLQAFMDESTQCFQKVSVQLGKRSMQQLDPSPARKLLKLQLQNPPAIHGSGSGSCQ

B1: KNL1 residues 2,026–2,342 (domain or fragment, human, UniProt Q8NG31 2026-2342, looked up)
chain: SAQNEREKLQIKIDEMDKILKKIDNCLTEMETETKNLEDEEKNNPVEEWDSEMRAAEKELEQLKTEEEELQRNLLELEVQKEQTLAQIDFMQKQRNRTEELLDQLSLSEWDVVEWSDDQAVFTFVYDTIQLTITFEESVVGFPFLDKRYRKIVDVNFQSLLDEDQAPPSSLLVHKLIFQYVEEKESWKKTCTTQHQLPKMLEEFSLVVHHCRLLGEEIEYLKRWGPNYNLMNIDINNNELRLLFSSSAAFAKFEITLFLSAYYPSVPLPSTIQNHVGNTSQDDIATILSKVPLENNYLKNVVKQIYQDLFQDCHFYH
notes: numbering of isoform 1 of the CASC5 gene; also called KNL1^WT; source: E. coli BL21(DE3)-Codon-plus-RIPL, purified (glutathione-agarose, TEV cleavage, SEC)
Kd [1]: ~1.6 nM | Kd [2]: ~2 nM

B2: SPC24_(109–197) (domain or fragment, human, UniProt Q8NBT2 109-197, looked up)
chain: EELKEIEADLERQEKEVDEDTTVTIPSAVYVAQLYHQVSKIEWDYECEPGMVKGIHHGPSVAQPIHLDSTQLSRKFISDYLWSLVDTEW
notes: source: E. coli BL21(DE3)-codon-plus-RIPL, co-purified with SPC25 (glutathione-agarose, 3C protease, SEC)
binding result [3]: binds | binding result [4]: binds | binding result [5]: binds

B3: SPC24_(109–197)/SPC25_(92–224) dimer (complex, human)
chain 1: EELKEIEADLERQEKEVDEDTTVTIPSAVYVAQLYHQVSKIEWDYECEPGMVKGIHHGPSVAQPIHLDSTQLSRKFISDYLWSLVDTEW
chain 2: KKQELEVLTANIQDLKEEYSRKKETISTANKANAERLKRLQKSADLYKDRLGLEIRKIYGEKLQFIFTNIDPKNPESPFMFSLHLNEARDYEVSDSAPHLEGLAEFQENVRKTNNFSAFLANVRKAFTATVYN
notes: SPC25, human, residues 92–224 (RWD domain); GST was cleaved off with 3C protease; also called SPC24/SPC25 dimer; source: E. coli BL21(DE3)-codon-plus-RIPL, purified (glutathione-agarose, 3C protease, SEC)
binding result [6]: binds | binding result [3]: binds | binding result [4]: binds

B4: ZWINT (natural protein, human, UniProt O95229 1-277, looked up)
chain: MEAAETEAEAAALEVLAEVAGILEPVGLQEEAELPAKILVEFVVDSQKKDKLLCSQLQVADFLQNILAQEDTAKGLDPLASEDTSRQKAIAAKEQWKELKATYREHVEAIKIGLTKALTQMEEAQRKRTQLREAFEQLQAKKQMAMEKRRAVQNQWQLQQEKHLQHLAEVSAEVRERKTGTQQELDRVFQKLGNLKQQAEQERDKLQRYQTFLQLLYTLQGKLLFPEAEAEAENLPDDKPQQPTRPQEQSTGDTMGRDPGVSFKAVGLQPAGDVNLP
notes: ZWINT, human; Probably made like the mutants (GST fusion, 3C cleaved); ZWINT was in the cryo-EM sample but is not visible in the map; also called ZWINT^WT
binding result [7]: binds

B5: full-length SPC24/SPC25 (complex, human)
chain 1: MAAFRDIEEVSQGLLSLLGANRAEAQQRRLLGRHEQVVERLLETQDGAEKQLREILTMEKEVAQSLLNAKEQVHQGGVELQQLEAGLQEAGEEDTRLKASLLQLTRELEELKEIEADLERQEKEVDEDTTVTIPSAVYVAQLYHQVSKIEWDYECEPGMVKGIHHGPSVAQPIHLDSTQLSRKFISDYLWSLVDTEW
chain 2: MVEDELALFDKSINEFWNKFKSTDTSCQMAGLRDTYKDSIKAFAEKLSVKLKEEERMVEMFLEYQNQISRQNKLIQEKKDNLLKLIAEVKGKKQELEVLTANIQDLKEEYSRKKETISTANKANAERLKRLQKSADLYKDRLGLEIRKIYGEKLQFIFTNIDPKNPESPFMFSLHLNEARDYEVSDSAPHLEGLAEFQENVRKTNNFSAFLANVRKAFTATVYN
notes: SPC24, human; SPC25, human; GST was cleaved off with 3C protease; also called SPC24/SPC25 heterodimer; SPC24/SPC25 pair; source: E. coli BL21(DE3)-codon-plus-RIPL, purified (glutathione-agarose, 3C protease, SEC)
Kd [1]: ~46 nM | fold reduction of binding affinity against the wild-type pair [8]: ~15 fold
